Experimental data reported in patent publication US20030186334A1, “KTS-disintegrins” (Temple University - Of the Commonwealth System of Higher …, priority 2001, published 2003).

What was measured:
[1] = biological target: human α1β1 integrin (human) (UniProt P56199); experiment: inhibition of adhesion of α1K562 cells to immobilised collagen IV
[2] = biological target: α6β1 integrin (UniProt P23229); experiment: inhibition of adhesion of α6K562 cells to laminin
Sequence of α6β1 integrin (P23229 24-1130, chain 1 of 2): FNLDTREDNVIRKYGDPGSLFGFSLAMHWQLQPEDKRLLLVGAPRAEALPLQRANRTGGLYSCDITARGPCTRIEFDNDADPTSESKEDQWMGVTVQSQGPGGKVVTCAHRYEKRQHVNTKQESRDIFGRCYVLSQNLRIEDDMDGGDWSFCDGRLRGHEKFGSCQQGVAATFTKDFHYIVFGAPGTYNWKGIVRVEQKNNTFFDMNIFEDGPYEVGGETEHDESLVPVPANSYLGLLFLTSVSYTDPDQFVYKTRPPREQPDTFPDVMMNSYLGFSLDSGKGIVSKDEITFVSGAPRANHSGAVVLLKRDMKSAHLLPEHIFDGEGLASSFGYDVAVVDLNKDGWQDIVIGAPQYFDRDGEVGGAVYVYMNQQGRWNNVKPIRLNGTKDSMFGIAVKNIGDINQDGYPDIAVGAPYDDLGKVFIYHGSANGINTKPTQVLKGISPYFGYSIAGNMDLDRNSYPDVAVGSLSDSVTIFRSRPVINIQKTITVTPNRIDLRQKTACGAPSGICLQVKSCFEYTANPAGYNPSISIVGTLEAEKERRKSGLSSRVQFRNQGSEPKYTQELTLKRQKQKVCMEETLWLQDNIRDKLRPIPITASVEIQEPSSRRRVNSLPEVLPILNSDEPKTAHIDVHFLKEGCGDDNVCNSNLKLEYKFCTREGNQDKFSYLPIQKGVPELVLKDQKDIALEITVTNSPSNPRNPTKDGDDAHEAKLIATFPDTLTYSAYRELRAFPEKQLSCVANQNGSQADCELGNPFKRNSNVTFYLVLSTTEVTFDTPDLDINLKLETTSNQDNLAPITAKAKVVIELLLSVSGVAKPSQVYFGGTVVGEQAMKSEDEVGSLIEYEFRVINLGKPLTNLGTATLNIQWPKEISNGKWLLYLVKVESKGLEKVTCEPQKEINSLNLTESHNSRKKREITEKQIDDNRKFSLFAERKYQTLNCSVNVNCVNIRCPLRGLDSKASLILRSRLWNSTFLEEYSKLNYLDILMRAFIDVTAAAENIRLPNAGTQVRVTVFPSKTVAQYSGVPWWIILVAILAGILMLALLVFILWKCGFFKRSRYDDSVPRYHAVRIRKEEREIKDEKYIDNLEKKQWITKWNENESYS
Sequence of α6β1 integrin (P05556 21-798, chain 2 of 2, further chain): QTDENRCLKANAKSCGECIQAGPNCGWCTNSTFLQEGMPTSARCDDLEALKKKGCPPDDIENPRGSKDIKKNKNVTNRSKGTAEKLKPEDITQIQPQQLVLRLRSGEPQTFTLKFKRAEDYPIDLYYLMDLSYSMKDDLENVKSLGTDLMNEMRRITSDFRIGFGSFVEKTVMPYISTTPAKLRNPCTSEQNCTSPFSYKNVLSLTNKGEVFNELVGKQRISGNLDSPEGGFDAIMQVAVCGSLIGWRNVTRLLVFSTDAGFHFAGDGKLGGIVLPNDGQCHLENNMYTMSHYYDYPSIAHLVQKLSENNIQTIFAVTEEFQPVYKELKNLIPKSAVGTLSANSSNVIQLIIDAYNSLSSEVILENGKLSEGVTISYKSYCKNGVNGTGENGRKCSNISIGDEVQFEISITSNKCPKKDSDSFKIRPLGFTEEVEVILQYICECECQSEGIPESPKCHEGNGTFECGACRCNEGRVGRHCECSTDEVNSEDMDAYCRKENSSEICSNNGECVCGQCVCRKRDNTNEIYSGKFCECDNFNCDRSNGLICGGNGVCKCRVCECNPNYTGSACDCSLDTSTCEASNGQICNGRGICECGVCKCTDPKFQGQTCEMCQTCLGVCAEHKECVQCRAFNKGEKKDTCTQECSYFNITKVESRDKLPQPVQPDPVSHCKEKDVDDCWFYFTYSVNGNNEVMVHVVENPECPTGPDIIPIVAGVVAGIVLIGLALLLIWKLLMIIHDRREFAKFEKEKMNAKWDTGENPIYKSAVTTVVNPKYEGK

Sequence of human α1β1 integrin (human) (P56199 29-1179, chain 1 of 2): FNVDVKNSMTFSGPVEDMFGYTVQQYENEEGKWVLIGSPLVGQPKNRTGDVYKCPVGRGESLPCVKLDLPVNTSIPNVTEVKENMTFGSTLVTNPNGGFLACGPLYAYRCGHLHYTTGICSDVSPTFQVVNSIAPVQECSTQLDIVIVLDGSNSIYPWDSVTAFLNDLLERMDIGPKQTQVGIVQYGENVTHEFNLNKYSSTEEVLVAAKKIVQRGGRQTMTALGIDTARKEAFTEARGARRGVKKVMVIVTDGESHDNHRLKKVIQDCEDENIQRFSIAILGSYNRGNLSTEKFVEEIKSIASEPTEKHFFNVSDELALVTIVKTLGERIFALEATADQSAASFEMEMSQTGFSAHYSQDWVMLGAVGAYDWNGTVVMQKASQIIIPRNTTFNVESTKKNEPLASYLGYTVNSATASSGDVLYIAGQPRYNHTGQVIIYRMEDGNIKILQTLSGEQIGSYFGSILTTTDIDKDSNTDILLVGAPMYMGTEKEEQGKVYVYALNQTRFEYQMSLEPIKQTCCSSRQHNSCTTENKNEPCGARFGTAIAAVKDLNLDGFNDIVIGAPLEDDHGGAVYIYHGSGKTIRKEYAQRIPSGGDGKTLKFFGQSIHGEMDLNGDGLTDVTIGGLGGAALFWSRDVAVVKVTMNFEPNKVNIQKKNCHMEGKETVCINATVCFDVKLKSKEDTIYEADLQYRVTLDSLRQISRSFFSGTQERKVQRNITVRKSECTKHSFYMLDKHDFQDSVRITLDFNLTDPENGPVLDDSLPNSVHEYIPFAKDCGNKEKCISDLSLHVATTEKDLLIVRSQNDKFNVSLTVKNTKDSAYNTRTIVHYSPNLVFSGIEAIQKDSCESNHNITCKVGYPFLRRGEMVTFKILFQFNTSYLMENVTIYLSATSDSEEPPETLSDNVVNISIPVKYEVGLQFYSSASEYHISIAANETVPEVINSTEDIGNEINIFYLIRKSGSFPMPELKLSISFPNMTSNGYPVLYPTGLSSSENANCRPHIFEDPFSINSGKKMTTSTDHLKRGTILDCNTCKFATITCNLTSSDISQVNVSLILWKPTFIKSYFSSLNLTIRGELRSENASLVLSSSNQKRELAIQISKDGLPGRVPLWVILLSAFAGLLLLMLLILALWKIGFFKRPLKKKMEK
Sequence of human α1β1 integrin (human) (P05556 21-798, chain 2 of 2, further chain): as the sequence (P05556 21-798, chain 2 of 2, further chain) above

Work on “Ethylpyridylated obtustatin (EP-obtustatin) (peptide)” yielded an IC50 [1] of 30 µM.

Substance viperisrastatin (peptide) has an IC50 [2] of over 10 µM.

With obtustatin (peptide) the IC50 [2] was over 10 µM.

Work on “eristostatin (from UniProt P0C6S4 1-49) (peptide)” yielded an IC50 [2] of over 10 µM.

“echistatin (from UniProt P17347 131-179) (peptide)” showed an IC50 [2] of over 10 µM.
